Test results reported in patent publication US11692029B2, “Therapy for glaucoma and optic neuropathy by targeting colony stimulating factors” (The Schepens Eye Research Institute, Inc., priority 2018, dated 2023).
Entries after “also recorded” stand apart in the source; their conditions may differ.

Key:
[1] = tested on: retinal ganglion cells (RGC); assay: RGC loss (anti-Brn3a RGC counts, whole-mount retina) in microbead-induced glaucoma mice; assay type: in vivo; conditions: MB-injected high-IOP mice, intravitreal treatment, versus vehicle/saline-treated mice
Source text: (§1) FIG. 3A is a line graph showing the intraocular pressure (IOP) level at baseline and up to 42 days/6 weeks post-MB injection of mice receiving either intravitreal injections of CSF1R Ab, CSF2, CSF1R Ab+CSF2 or control vehicle at D3 and D7. FIG. 3B is a bar graph showing the ratio of positive scotopic threshold response (pSTR) of glaucoma eye to contralateral normal eye. FIG. 3C is a bar graph showing the contrast sensitivity (CS) of the OMR. FIG. 3D is a bar graph showing Retinal Ganglion Cells (RGC) density of control (Ctr), vehicle (Veh) and CSF1R Ab, CSF2 and CSF2+CSF1 Ab-treated groups. Note Ctr group are the uninjured eyes. FIGS. 3E-3G are photomicrographs of Brn3a+RGCs (red) at 6 week post-injection of microbeads. In these figures (FIGS. 3A-G), ‘#’ and ‘*’ represents statistical analysis comparing to control and vehicle group, respectively. *, ** and *** represent P value <0.05, 0.01 and 0.001, respectively. #, ## and ### represent P value <0.05, <0.01 and <0.001.
(§2) FIG. 7 is a schematic representation showing the experimental design. […]
Microbeads (MB) were injected into the anterior chamber of adult B6 mice to induce high IOP. The expression of CSF1/2 and their receptors was examined by immunostaining and quantitative polymerase chain reaction (qPCR) at different time points after MB injection. […]

[2] = tested on: retinal function (pSTR); assay: positive scotopic threshold response (pSTR) in microbead-induced glaucoma mice; assay type: in vivo; conditions: MB-induced glaucomatous mice, intravitreal treatment, 4 and 6 weeks after MB injection, versus vehicle
Source text: as §1, §2
The function of retinal ganglion cells (RGCs) can be non-invasively assessed in experimental and genetic models of glaucoma by means of variants of the ERG technique that emphasize the activity of inner retina neurons. […]

[3] = tested on: visual function; assay: visual function (contrast sensitivity and visual acuity) in microbead-induced glaucoma mice; assay type: in vivo; conditions: MB-induced glaucomatous mice, intravitreal treatment, 4 and 6 weeks after MB injection, versus vehicle
Source text: as §1, with “<0.001. […] FIG. 7 is a schematic representation showing the experimental design. It was hypothesized that inhibiting CSF1 by administration of CSF1R antibody (CSF1R Ab) and/or promoting CSF2 signaling protect RGC against glaucomatous damage. Four experimental groups were proposed: following MB-injection to induce high IOP, mice received treatment of vehicle (PBS), CSF1R Ab, CSF2, or CSF1R Ab+CSF2 were studied. […]” for “<0.001.”

[4] = tested on: microglia; assay: microglial activation in a glaucoma mouse model; assay type: in vivo, mice; conditions: intravitreal injection
Source text: Activation of microglia plays a critical role in the progression of neurodegeneration in glaucoma. Colony stimulating factor 1 (CSF1) and colony stimulating factor 2 (CSF2) are involved in glaucomatous neuron loss by regulating microglia function.

[5] = listed as CSF2 recombinant protein

B1: CSF2: Granulocyte-macrophage colony-stimulating factor recombinant protein; exemplary source Peprotech Recombinant Murine GM-CSF, Cat #: 315-03 (protein, UniProt P01587 18-141, looked up)
Granulocyte-macrophage …: APTRSPITVTRPWKHVEAIKEALNLLDDMPVTLNEEVEVVSNEFSFKKLTCVQTRLKIFEQGLRGNFTKLKGALNMTASYYQTYCPPTPETDCETQVTTYADFIDSLKTFLTDIPFECKKPGQK
[1]
  RGC loss: decreased RGC loss; also recorded: reduced or attenuated glaucomatous RGC loss
[1]; [5]
  RGC loss: protected the loss of retinal ganglion cells (RGCs)
[2]
  pSTR amplitude: pSTR increased
[3]
  visual function (vision contrast sensitivity and visual acuity): visual function increased
[3]; [5]
  visual function (vision contrast sensitivity and visual acuity): protected the loss of retinal ganglion cells (RGCs) and vision function
[4]
  microglial activation: significantly suppressed microglial activation
